Columns and labels:
[1] = target: BtuC2D2 (E. coli vitamin B12 ABC transporter, core transporter: ATPase + permease) (E. coli) (UniProt P06609)
[2] = target: BtuC2D2 (E. coli vitamin B12 ABC transporter, core transporter: ATPase + permease) (E. coli) (UniProt P06609); experiment: SPR; fresh (naive) His-BtuC2D2 (1500-2000 RU) immobilised on a Ni-NTA chip, apo FLAG-BtuF injected at 0.1-2 uM; Biacore T200, 25 °C, 50 mM Tris-HCl pH 7.5, 150 mM NaCl, 0.1% LDAO, 15 uL/min
[3] = target: BtuC2D2 (E. coli vitamin B12 ABC transporter, core transporter: ATPase + permease) (E. coli) (UniProt P06609); experiment: SPR; His-BtuC2D2 that had worked (100 uM ATP, 1 mM MgCl2) for 7 hours, nucleotides removed, immobilised on a Ni-NTA chip; apo FLAG-BtuF injected at 0.1-2 uM; 25 °C, 50 mM Tris-HCl pH 7.5, 150 mM NaCl, 0.1% LDAO

UniProt P06609, sequence (P06609 whole entry, chain 1 of 2): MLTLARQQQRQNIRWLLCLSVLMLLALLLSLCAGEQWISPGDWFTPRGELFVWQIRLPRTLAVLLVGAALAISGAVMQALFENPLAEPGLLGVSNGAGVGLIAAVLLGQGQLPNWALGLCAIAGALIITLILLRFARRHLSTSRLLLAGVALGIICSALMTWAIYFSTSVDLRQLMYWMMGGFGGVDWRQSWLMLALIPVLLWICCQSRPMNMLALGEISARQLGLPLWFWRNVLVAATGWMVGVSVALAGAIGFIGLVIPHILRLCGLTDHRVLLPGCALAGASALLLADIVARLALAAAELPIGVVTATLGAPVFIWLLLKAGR
UniProt P06609, sequence (P06611 whole entry, chain 2 of 2, further chain): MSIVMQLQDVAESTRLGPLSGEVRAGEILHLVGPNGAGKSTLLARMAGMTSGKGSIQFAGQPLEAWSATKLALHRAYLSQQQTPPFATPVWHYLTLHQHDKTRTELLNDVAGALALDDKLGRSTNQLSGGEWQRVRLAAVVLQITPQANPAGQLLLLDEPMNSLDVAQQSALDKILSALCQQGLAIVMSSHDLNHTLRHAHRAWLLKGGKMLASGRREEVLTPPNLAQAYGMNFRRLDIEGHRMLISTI

uptake rate of 57Co vitamin B12 into proteoliposomes, BtuC2D2 that had worked 7 hours against its fresh precursor [1]: 60%
Kd [2]: 0.036 nM
koff [2]: 1.2e-05 s⁻¹
kon [2]: 280000 M⁻¹ s⁻¹
Kd [3]: 0.037 nM
improvement of BtuF binding of worked over fresh BtuC2D2 [3]: 35 to 60%
koff [3]: 1.1e-05 s⁻¹
kon [3]: 290000 M⁻¹ s⁻¹
B1: BtuF, substrate binding protein (SBP) of the vitamin B12 transport system, FLAG-tagged (natural protein)
chain: APRVITLSPANTELAFAAGITPVGVSSYSDYPPQAQKIEQVSTWQGMNLERIVALKPDLVIAWRGGNAERQVDQLASLGIKVMWVDATSIEQIANALRQLAPWSPQPDKAEQAAQSLLDQYAQLKAQYADKPKKRVFLQFGINPPFTSGKESIQNQVLEVCGGENIFKDSRVPWPQVSREQVLARSPQAIVITGGPDQIPKIKQYWGEQLKIPVIPLTSDWFERASPRIILAAQQLCNALSQVD

Source: PMC4765350
